B1: Golgi phosphoprotein 3 homolog sauron (Drosophila melanogaster (Fruit fly)), Q9VQ93 (parent)
chain: MNRSDGLVRRSVKPRENGGAEGGLNANTPDDNQDALDNLKDQEDNIDDGDSKETRLTLMEEVLLLGLKDKEGYTSFWNDCISSGLRGCILIELGLRGRVMIEKSGMRRRGLCTRKLILKSDQQTGDVLLDEALKHIKETDPPETVQSWIEYLSGETWNPLKLRYQLKNVRERLAKNLVEKGVLTTEKQNFLLFDMTTHPLSDNVVKCRLVKKIQDSVLSKWVNDPQRMDKRMLALIFLAHASDVIENAFAPLNDDDYEVAMKRVRELLDLDFEAESAKPNANEILWAVFMAFTK
partner: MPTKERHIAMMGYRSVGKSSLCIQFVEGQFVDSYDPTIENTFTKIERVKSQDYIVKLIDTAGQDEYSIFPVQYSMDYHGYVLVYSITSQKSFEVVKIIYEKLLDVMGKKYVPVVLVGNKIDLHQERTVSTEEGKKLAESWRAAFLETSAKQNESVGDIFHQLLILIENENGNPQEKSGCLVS

Variants of: B1
Details: with rheb_drome Rheb

| Variant | effect of a mutation on the interaction |
| --- | --- |
| K167A;R170L | disrupting interaction strength |

Reference: IntAct's records for PubMed 36435842
